According to patent publication US20040224337:

Columns and labels:
FAS = FAS (UniProt P25445)
[1] = tested on: FASpTyr275 peptide (Biotin-KKEAY(PO3)DTLI-COOH)

Chain of UniProt P25445 (P25445 26-335): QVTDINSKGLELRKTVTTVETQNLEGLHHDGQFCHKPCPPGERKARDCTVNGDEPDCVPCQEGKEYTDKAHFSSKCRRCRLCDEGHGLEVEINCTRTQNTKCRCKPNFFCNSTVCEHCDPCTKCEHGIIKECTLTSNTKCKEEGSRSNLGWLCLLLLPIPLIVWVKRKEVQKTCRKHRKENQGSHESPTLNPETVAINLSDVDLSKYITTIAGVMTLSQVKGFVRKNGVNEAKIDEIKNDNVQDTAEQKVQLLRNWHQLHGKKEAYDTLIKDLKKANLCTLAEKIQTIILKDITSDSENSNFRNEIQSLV

PTPL1/FAP-1
tyrosine phosphorylation of immunoprecipitated FAS (PY20-HRP blot after incubation in phosphatase reaction buffer) (FAS): endogenous FAP-1 dephosphorylates FAS | in vitro phosphatase assay (dephosphorylation relative to vector as percent activity) [1]: FAP-1 immunoprecipitated from overexpressing cells dephosphorylates the biotinylated phospho-peptide (FASpY275) in an in vitro phosphatase assay
